The text below walks through data of the supplement of paper PMC7877785.

This series is described as follows: self-splicing fitness, log relative to wild type (ln ratio); higher = more splicing; Tetrahymena group I intron in knt gene, E. coli kanamycin selection, DiMSum; sequences stand for … in CUCUCU…GGAGGGAAAAGUUAUCAGGCAUGCACCUGGUAGCUAGUCUUUAAACCAAUAGAUUGCAUCGGUUUAAAAGGCAAGACCGUCAAAUUGCGGGAAAGGGGUCAACAGCCGUUCAGUACCAAGUCUCAGGGGAAACUUUGAGAUGGCCUUGCAAAGGGUAUGGUAAUAAGCUGACGGACAUGGUCCUAACCACGCAGCCAAGUCCUAAGUCAACAGAUCUUCUGUUGAUAUGGAUGCAGUUCACAGACUAAAUGUCGGUCGGGGAAGAUGUAUUCUUCUCAUAAGAUAUAGUCGGACCUCUCCUUAAUGGGAGCUAGCGGAUGAAGUGAUGCAACACUGGAGCCGCUGGGAACUAAUUUGUAUGCGAAAGUAUAUUGAUUAGUUUUGGAGUACUCGUGGUCG
The method in brief:
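Pooled colonies went to amplicon sequencing on an Illumina HiSeq 2500 after six replicate transformations. The plates were LB agar with 100 μg/mL carbenicillin, 50 μM IPTG and 0.2% rhamnose, with or without 25 μg/mL kanamycin, incubated overnight at 37°C or 30°C. The E. coli BL21(DE3) library had all eight P1ex-region intron nucleotides randomised, the intron placed in the knt kanamycin-resistance gene on pET-22b(+). DiMSum fitness is the error-weighted combination of replicate fold changes, kanamycin against none, normalised to wild type.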

± gives the uncertainty stated by the source.

In the case of UCUGAGCAAUAUUACGGCAA, the “self-splicing fitness (ln)” value is, setting by setting: (30 °C) -2.44 ± 0.4; (37 °C) -1.8 ± 0.35. In the case of ACUUAGCAAUAUUACGUUUU, the “self-splicing fitness (ln)” value is, setting by setting: (30 °C) -3.39 ± 0.12; (37 °C) -1.93 ± 0.1. Regarding GACUAGCAAUAUUACGUCUG, the “self-splicing fitness (ln)” value by setting is: (30 °C) -3.86 ± 0.25; (37 °C) -1.57 ± 0.23.

As for AGUGAGCAAUAUUACGCUAC, the “self-splicing fitness (ln)” value runs as follows: (30 °C) -2.96 ± 0.16; (37 °C) -2.3 ± 0.23.

Consider UAGUAGCAAUAUUACGGUUU, for which the “self-splicing fitness (ln)” value (30 °C) was -3.57 ± 0.31 and the “self-splicing fitness (ln)” value (37 °C) is -0.883 ± 0.16. Taken in the same sequence, the figures for CCUUAGCAAUAUUACGGGCC were -2.94 ± 0.31 and -2.54 ± 0.35.

With AUACAGCAAUAUUACGUGUG, the “self-splicing fitness (ln)” value by setting is: (30 °C) -1.73 ± 0.051; (37 °C) -0.977 ± 0.062. Regarding GCACAGCAAUAUUACGUCGG, the “self-splicing fitness (ln)” value is -1.72 ± 0.1 (30 °C) and -1.09 ± 0.13 (37 °C).

Consider GACGAGCAAUAUUACGCUGU, for which the “self-splicing fitness (ln)” value is -3.17 ± 0.3 (30 °C) and -2.9 ± 0.33 (37 °C). Taken in the same sequence, the figures for CACCAGCAAUAUUACGAUGC were -2.96 ± 0.13 and -2.06 ± 0.14. Turning to CCUUAGCAAUAUUACGCAUC, the “self-splicing fitness (ln)” value (37 °C) is -2.77 ± 0.48. As for AUUCAGCAAUAUUACGUGAU, the “self-splicing fitness (ln)” value (30 °C) is -0.92 ± 0.061 and the “self-splicing fitness (ln)” value (37 °C) was -0.187 ± 0.078. Taken in the same sequence, the figures for AUCCAGCAAUAUUACGGUAG were -3.97 ± 0.2 and -2.6 ± 0.15. The like results for CUUCAGCAAUAUUACGGGUG were, in that order, -0.356 ± 0.038 and 0.33 ± 0.058. The like results for CGCCAGCAAUAUUACGAGGC were, in that order, -2.66 ± 0.2 and -3.07 ± 0.32.

Regarding CACAAGCAAUAUUACGUAUU, the “self-splicing fitness (ln)” value was -3.81 ± 0.17 (30 °C) and -2.66 ± 0.15 (37 °C).

With ACGUAGCAAUAUUACGGAGC, the “self-splicing fitness (ln)” value runs as follows: (30 °C) -3.42 ± 0.22; (37 °C) -2.39 ± 0.26. With UCGGAGCAAUAUUACGGAGC, where the note is “37 °C”, the “self-splicing fitness (ln)” value is -1.64 ± 0.4. As to GCCCAGCAAUAUUACGCGUA, the “self-splicing fitness (ln)” value reads like this: (30 °C) -0.753 ± 0.061; (37 °C) -0.155 ± 0.064. Taken in the same sequence, the figures for ACAAAGCAAUAUUACGAGGC were -2.57 ± 0.16 and -1.59 ± 0.34.

Turning to GUACAGCAAUAUUACGCUGG, the “self-splicing fitness (ln)” value (30 °C) was -2.55 ± 0.13 and the “self-splicing fitness (ln)” value (37 °C) was -0.491 ± 0.12. As to AAUGAGCAAUAUUACGUAUC, the “self-splicing fitness (ln)” value (30 °C) is -3.14 ± 0.21 and the “self-splicing fitness (ln)” value (37 °C) is -1.14 ± 0.17. The like results for GGCCAGCAAUAUUACGAUCA were, in that order, -2.93 ± 0.25 and -1.53 ± 0.16. Turning to CCUUAGCAAUAUUACGCCCU, the “self-splicing fitness (ln)” value (30 °C) is -1.89 ± 0.48. With GAAUAGCAAUAUUACGUGUC, the “self-splicing fitness (ln)” value is, setting by setting: (30 °C) -3.72 ± 0.27; (37 °C) -2.58 ± 0.14.

On to ACAUAGCAAUAUUACGUAUC, for which the “self-splicing fitness (ln)” value reads like this: (30 °C) -3.37 ± 0.19; (37 °C) -1.62 ± 0.2. As to UUGAAGCAAUAUUACGCACC, the “self-splicing fitness (ln)” value (30 °C) was -2.62 ± 0.34 and the “self-splicing fitness (ln)” value (37 °C) is -1.41 ± 0.4. The like results for CGGUAGCAAUAUUACGGAUU were, in that order, -2.63 ± 0.36 and -2.23 ± 0.34. As for CUGCAGCAAUAUUACGGCGU, the “self-splicing fitness (ln)” value (37 °C) was -1.04 ± 0.32. As to CAGAAGCAAUAUUACGUAGG, the “self-splicing fitness (ln)” value by setting is: (30 °C) -0.872 ± 0.06; (37 °C) 0.297 ± 0.1. Regarding UUGAAGCAAUAUUACGUGUC, the “self-splicing fitness (ln)” value is, setting by setting: (30 °C) -2.93 ± 0.21; (37 °C) -2.47 ± 0.24. The like results for ACACAGCAAUAUUACGUUGA were, in that order, -1.91 ± 0.091 and -1.92 ± 0.11. With UGGUAGCAAUAUUACGGAGG, the “self-splicing fitness (ln)” value is, setting by setting: (30 °C) -3.85 ± 0.27; (37 °C) -1.56 ± 0.16. On to CUACAGCAAUAUUACGACAG, for which the “self-splicing fitness (ln)” value (30 °C) was -0.672 ± 0.088 and the “self-splicing fitness (ln)” value (37 °C) came out at 0.096 ± 0.11. Take GACGAGCAAUAUUACGGAUG: the “self-splicing fitness (ln)” value is, setting by setting: (30 °C) -2.45 ± 0.24; (37 °C) -1.12 ± 0.16.

Turning to UUUAAGCAAUAUUACGCCCA, the “self-splicing fitness (ln)” value (30 °C) worked out at 0.412 ± 0.32 and the “self-splicing fitness (ln)” value (37 °C) came out at 0.619 ± 0.37. The like results for AAGAAGCAAUAUUACGAGAG were, in that order, -4.49 ± 0.36 and -2.41 ± 0.2. Taken in the same sequence, the figures for GUAUAGCAAUAUUACGAUCU were -1.16 ± 0.19 and 0.209 ± 0.21.
